Results from paper PMC8419096.

B1: VHH52-GFP (control nanobody elicited against the influenza nucleoprotein, fused to GFP) (VHH)
VHH: QVQLQESGGGLVQAGGSLRLTCALSERTSTSYAQGWFRQPPGKEREFVASLRTHDGNTHYTDSVKGRFTISRDNAENTLYLQMNSLKTEDTAVYYCAASLGYSGAYASGYDYWGQGTQVTVSS

Target: HIV-1 precursor Gag (PrGag) protein (HIV-1) (UniProt P04591)
Test: dual fluorescence microscopy of virus-like particles

Row | Molecule | percent of CA positive particles that were also GFP positive
1 | EGFP-Vpr (from UniProt P12520 1-96) (natural protein) | 39.1%
2 | B1 | 0.1%
